Test results from publication PMC6533203.

Key:
[1] = target: CAP256 UCA; experiment: BLI (Octet); conditions: parent: est. 0.19; read off a plot
[2] = target: CH01 inferred germline-reverted (iGL) antibody; experiment: BLI (Octet); conditions: parent: est. 0.12; read off a plot
[3] = target: MT145K SOSIP.664 trimer (SIVcpzPtt (chimpanzee SIV), isolate MT145); experiment: cryo-EM structure; unliganded MT145K trimer, global resolution ~4.1 Å
[4] = pseudovirus neutralization, TZM-bl cells, ID50; conditions: glycan lost; control: MT145K virus

| Molecule | response [2] [nm] | also measured |
| --- | --- | --- |
| MT145K SOSIP.664 trimer N160K | 0.04 | response [1]: 0.015 nm |
| MT145K SOSIP.664 trimer (complex) | – | stoichiometry N [3]: 3 |
| MT145K SOSIP.664 trimer K171E | 0.015 | – |
| MT145K SOSIP.664 trimer R166S | 0.1 | – |
| MT145K SOSIP.664 Env trimer (also MT145K Env pseudovirus): MT145K N160A (protein) parent chain: MKVMGMKYYWWRNSCRSISIKLILIGWIASCFGEENWWVTVYYGVPVWREAKTTLFCASDAKSYSTEAHNIWATQACVPTDPTPQEVLLPNVTEEFNMWENYMVDQMQEDIISLWEQSLKPCVKLTPLCVTLTCNNPTNTSCTNSTDDRLGDMRNCSFNVTTELRDKKRQVYSLFYVEDITAIGNNSTYRLINCNTTAITQACPKTSFEPIPIHYCAPAGFALLKCNDIDYKGNETCKNVSTVHCTHGIKPVATTQLILNGSTADNQTVARIDPSENLAIIQLKDPVKITCRRPGNNTRGQIQIGPAMTFYNIENVVGDTRKAYCEINGTQWAKALNETKEVLRNILRKNISFMVPSGGDPEVTNHHFNCGGEFFYCNTSEIINITKINKTENMTIIPCRIRQIVNSWMRVGKGIFAPPIRGNITCTSNITGMLLEIHKNREDQGEDQDQNNTYVCLTGGNMKDIWRSELYKYKIVEIQPLGVAPTKSRRYAVEKQHHREKRALGLGALFLGFLGAAGSTMGAASVVLTVQARQLLTGIVQQQNNLLRAIEAQQHLLQLSVWGIKQLQARVLAVERYLRDQQLLGLWGCTGKTICPTAVRWNKTWGNISDYQVIWNNYTWQQWDREVNNYTGLIYTLLEEANTQQEKNEKELLELDSWANLWSWFDITNWLWYIKMFLIVVGGIIGLRICFAIGSLINRVRKGYSPLSLQTLIPANQGPDGLGETEKGGGENVRGRSIRLVSGFLPLVWEDLRNLLSFLYHQLRDCASLIWRLLEILGQYSLRGVQQIGTLLHQLRGTLQYWTTEIKNSAISLLDTTAIAVGEGTDRILEAITRLGRGILHIPRRIRQGLERALL | – | other: neutralisation sensitivity [4]: decreases |
